The results in this text go back to patent US20040018561A1, “Peptide compounds and their use as protease substrates” (priority 2002, published 2004).

Format in all cases: biochemical
Substrate in data set [1]: COc1ccc2c(CC(=O)N[C@H](CCCNC(=N)N)C(=O)N3CCC[C@H]3C(=O)N[C@@H](CC(C)C)C(=O)NCC(=O)N[C@@H](CCCCOCc3ccccc3)C(=O)N[C@@H](CNc3ccc([N+](=O)[O-])cc3[N+](=O)[O-])C(=O)N[C@@H](C)C(=O)N[C@H](CCCNC(=N)N)C(=O)N[C@H](CCC(=O)O)C(=O)N[C@H](CCCNC(=N)N)C(N)=O)cc(=O)oc2c1
In words: Km and kcat/Km of substrates with MMP-1. The note with it: other: substrate cleavage by MMP-1.

Substrate in data set [2]: COc1ccc2c(CC(=O)N[C@@H](CCCNC(=N)N)C(=O)N3CCC[C@@H]3C(=O)N[C@@H](CC(C)C)C(=O)NCC(=O)N[C@@H](CC(C)C)C(=O)N[C@H](CNc3ccc([N+](=O)[O-])cc3[N+](=O)[O-])C(=O)N[C@@H](C)C(=O)N[C@H](CCCNC(=N)N)C(=O)N[C@@H](CCC(=O)O)C(=O)N[C@H](CCCNC(=N)N)C(N)=O)cc(=O)oc2c1
In words: Km and kcat/Km of substrates with MMP-1. The note with it: other: substrate cleavage by MMP-1.

Substrate in data set [3]: COc1ccc2c(CC(=O)N[C@H](CCCNC(=N)N)C(=O)N3CCC[C@H]3C(=O)N[C@@H](CC(C)C)C(=O)NCC(=O)N[C@@H](CCCCOCc3ccccc3)C(=O)N[C@@H](CNc3ccc([N+](=O)[O-])cc3[N+](=O)[O-])C(=O)N[C@@H](C)C(=O)N[C@H](CCCNC(=N)N)C(=O)N[C@H](CCC(=O)O)C(=O)N[C@H](CCCNC(=N)N)C(N)=O)cc(=O)oc2c1
Put plainly: Km and kcat/Km of substrates with MMP-2. The note with it: other: substrate cleavage by MMP-2.

Substrate in data set [4]: COc1ccc2c(CC(=O)N[C@@H](CCCNC(=N)N)C(=O)N3CCC[C@H]3C(=O)N[C@@H](CC(C)C)C(=O)NCC(=O)N[C@@H](CCCCOCc3ccccc3)C(=O)N[C@@H](CNc3ccc([N+](=O)[O-])cc3[N+](=O)[O-])C(=O)N[C@@H](C)C(=O)N[C@@H](CCCNC(=N)N)C(=O)N[C@@H](CCC(=O)O)C(=O)N[C@@H](CCCNC(=N)N)C(N)=O)cc(=O)oc2c1
Put plainly: Km and kcat/Km of substrates with MMP-2. The note with it: other: substrate cleavage by MMP-2.

Substrate in data set [5]: COc1ccc2c(CC(=O)N[C@@H](CCCNC(=N)N)C(=O)N3CCC[C@@H]3C(=O)N[C@@H](CC(C)C)C(=O)NCC(=O)N[C@@H](CC(C)C)C(=O)N[C@H](CNc3ccc([N+](=O)[O-])cc3[N+](=O)[O-])C(=O)N[C@@H](C)C(=O)N[C@H](CCCNC(=N)N)C(=O)N[C@@H](CCC(=O)O)C(=O)N[C@H](CCCNC(=N)N)C(N)=O)cc(=O)oc2c1
Put plainly: Km and kcat/Km of substrates with MMP-2. The note with it: other: substrate cleavage by MMP-2.

Substrate in data set [6]: COc1ccc2c(CC(=O)N[C@H](CCCNC(=N)N)C(=O)N3CCC[C@H]3C(=O)N[C@@H](CC(C)C)C(=O)NCC(=O)N[C@@H](CCCCOc3ccccc3)C(=O)N[C@@H](CNc3ccc([N+](=O)[O-])cc3[N+](=O)[O-])C(=O)N[C@@H](C)C(=O)N[C@H](CCCNC(=N)N)C(=O)N[C@H](CCC(=O)O)C(=O)N[C@H](CCCNC(=N)N)C(N)=O)cc(=O)oc2c1
Put plainly: Km and kcat/Km of substrates with MMP-2. The note with it: other: substrate cleavage by MMP-2.

Substrate in data set [7]: COc1ccc2c(CC(=O)N[C@H](CCCNC(=N)N)C(=O)N3CCC[C@H]3C(=O)N[C@@H](CC(C)C)C(=O)NCC(=O)N[C@@H](CCCCOCc3ccccc3)C(=O)N[C@@H](CNc3ccc([N+](=O)[O-])cc3[N+](=O)[O-])C(=O)N[C@@H](C)C(=O)N[C@H](CCCNC(=N)N)C(=O)N[C@H](CCC(=O)O)C(=O)N[C@H](CCCNC(=N)N)C(N)=O)cc(=O)oc2c1
Put plainly: Km and kcat/Km of substrates with MMP-7. The note with it: other: substrate cleavage by MMP-7.

Substrate in data set [8]: COc1ccc2c(CC(=O)N[C@@H](CCCNC(=N)N)C(=O)N3CCC[C@@H]3C(=O)N[C@@H](CC(C)C)C(=O)NCC(=O)N[C@@H](CC(C)C)C(=O)N[C@H](CNc3ccc([N+](=O)[O-])cc3[N+](=O)[O-])C(=O)N[C@@H](C)C(=O)N[C@H](CCCNC(=N)N)C(=O)N[C@@H](CCC(=O)O)C(=O)N[C@H](CCCNC(=N)N)C(N)=O)cc(=O)oc2c1
Put plainly: Km and kcat/Km of substrates with MMP-7. The note with it: other: substrate cleavage by MMP-7.

B1: MMP-1 (Homo sapiens) (protein)
chain: FVLTEGNPRWEQTHLTYRIENYTPDLPRADVDHAIEKAFQLWSNVTPLTFTKVSEGQADIMISFVRGDHRDNSPFDGPGGNLAHAFQPGPGIGGDAHFDEDERWTNNFREYNLHRVAAHELGHSLGLSHSTDIGALMYPSYTFSGDVQLAQDDIDGIQAIYGRSQNPVQPIGPQTPKACDSKLTFDAITTIRGEVMFFKDRFYMRTNPFYPEVELNFISVFWPQLPNGLEAAYEFADRDEVRFFKGNKYWAVQGQNVLHGYPKDIYSSFGFPRTVKHIDAALSEENTGKTYFFVANKYWRYDEYKRSMDPGYPKMIAHDFPGIGHKVDAVFMKDGFFYFFHGTRQYKFDPKTKRILTLQKANSWFNCRKN
A word on the Km: it is the concentration of substrate that gives half-maximal velocity. For B1, the figures for the Km in data set [1] and in data set [2] were 35.1 µM and 49 µM, respectively. In addition, the kcat/Km in data set [1] worked out at 0.36 M^−1s^−1×10^4; in data set [2], 5.7 M^−1s^−1×10^4.

B2: MMP-2 (Homo sapiens) (protein)
chain: YNFFPRKPKWDKNQITYRIIGYTPDLDPETVDDAFARAFQVWSDVTPLRFSRIHDGEADIMINFGRWEHGDGYPFDGKDGLLAHAFAPGTGVGGDSHFDDDELWTLGEGQVVRVKYGNADGEYCKFPFLFNGKEYNSCTDTGRSDGFLWCSTTYNFEKDGKYGFCPHEALFTMGGNAEGQPCKFPFRFQGTSYDSCTTEGRTDGYRWCGTTEDYDRDKKYGFCPETAMSTVGGNSEGAPCVFPFTFLGNKYESCTSAGRSDGKMWCATTANYDDDRKWGFCPDQGYSLFLVAAHEFGHAMGLEHSQDPGALMAPIYTYTKNFRLSQDDIKGIQELYGASPDIDLGTGPTPTLGPVTPEICKQDIVFDGIAQIRGEIFFFKDRFIWRTVTPRDKPMGPLLVATFWPELPEKIDAVYEAPQEEKAVFFAGNEYWIYSASTLERGYPKPLTSLGLPPDVQRVDAAFNWSKNKKTYIFAGDKFWRYNEVKKKMDPGFPKLIADAWNAIPDNLDAVVDLQGGGHSYFFKGAYYLKLENQSLKSVKFGSIKSDWLGC
In the case of B2, the Km in data set [3] is 3.7 µM; in data set [4], 8.3 µM; in data set [5], 9.9 µM; in data set [6], 3.6 µM. Besides, the kcat/Km is on record as 60 M^−1s^−1×10^4 in data set [3], 134 M^−1s^−1×10^4 in data set [4], 17.8 M^−1s^−1×10^4 in data set [5] and 196 M^−1s^−1×10^4 in data set [6].

B3: MMP-7 (Homo sapiens) (protein)
chain: YSLFPNSPKWTSKVVTYRIVSYTRDLPHITVDRLVSKALNMWGKEIPLHFRKVVWGTADIMIGFARGAHGDSYPFDGPGNTLAHAFAPGTGLGGDAHFDEDERWTDGSSLGINFLYAATHELGHSLGMGHSSDPNAVMYPTYGNGDPQNFKLSQDDIKGIQKLYGKRSNSRKK
For B3, the Km was found to be 94.7 µM in data set [7] and 81.2 µM in data set [8]. Further, the kcat/Km in data set [7] is 0.298 M^−1s^−1×10^4; in data set [8], 2.2 M^−1s^−1×10^4.
